Values of other authors, collected in PMC7156917.

Legend:
CCR5 (Homo sapiens) = CCR5 (Homo sapiens) (UniProt P51681); assay: equilibrium binding assay
CXCR4 (Homo sapiens) = CXCR4 (Homo sapiens) (UniProt P61073); assay: SPR
Sequence of UniProt P61073 (P61073 whole entry): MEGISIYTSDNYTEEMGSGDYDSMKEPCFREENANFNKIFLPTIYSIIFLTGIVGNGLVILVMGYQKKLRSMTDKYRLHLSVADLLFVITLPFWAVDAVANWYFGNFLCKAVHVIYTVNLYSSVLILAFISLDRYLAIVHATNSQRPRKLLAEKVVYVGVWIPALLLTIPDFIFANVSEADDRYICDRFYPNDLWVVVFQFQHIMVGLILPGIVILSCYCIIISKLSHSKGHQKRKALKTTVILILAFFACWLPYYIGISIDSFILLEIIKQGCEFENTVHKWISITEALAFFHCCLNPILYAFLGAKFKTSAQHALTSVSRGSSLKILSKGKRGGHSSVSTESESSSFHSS

Sequence of UniProt P51681 (P51681 whole entry): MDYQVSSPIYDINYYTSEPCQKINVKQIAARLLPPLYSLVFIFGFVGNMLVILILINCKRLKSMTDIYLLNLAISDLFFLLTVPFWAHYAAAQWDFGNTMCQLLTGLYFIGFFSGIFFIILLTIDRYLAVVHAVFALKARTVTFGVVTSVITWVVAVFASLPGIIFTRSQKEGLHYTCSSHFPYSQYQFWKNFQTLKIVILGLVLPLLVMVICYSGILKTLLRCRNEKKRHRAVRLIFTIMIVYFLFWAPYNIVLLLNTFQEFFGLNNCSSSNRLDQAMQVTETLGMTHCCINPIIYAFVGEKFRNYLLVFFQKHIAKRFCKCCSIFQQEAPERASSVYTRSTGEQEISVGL

Substance: HIV Env gp120 gp120 (from UniProt O70902)
- Kd (CCR5 (Homo sapiens)): 5 nM
- Kd (CXCR4 (Homo sapiens)): 500 nM
